Molecular target: eGFP-Rab35CA (Q67L), GTP-locked, constitutively active (mouse, UniProt Q6PHN9 1-201, Q67L)
Experiment: co-IP; eGFP-Rab35CA or -DN captured on eGFP-Trap_MA beads from lysates of HEK293T cells co-expressing MTMR13 constructs, 24 h after transfection; 90 min at 4 °C; immunoblot
Settings: partners not purified

Sequence of eGFP-Rab35CA (Q67L), GTP-locked, constitutively active (Q6PHN9 whole entry Q67L): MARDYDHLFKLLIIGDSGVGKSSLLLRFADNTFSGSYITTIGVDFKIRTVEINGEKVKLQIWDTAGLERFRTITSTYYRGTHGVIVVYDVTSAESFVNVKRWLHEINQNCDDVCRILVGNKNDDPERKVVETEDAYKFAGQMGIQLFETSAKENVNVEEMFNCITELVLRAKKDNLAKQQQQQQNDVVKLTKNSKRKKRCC

- ratio of FLAG-MTMR13 bound to CA over DN: 11.6
B1: N-terminally FLAG-tagged MTMR13 (natural protein)
chain: not shown
notes: MTMR13 (SBF2), full length, printed as aa1-1848, 5547 bp; other constructs end at aa1849; Gift plasmid in pcDNA3.1; the printed length of 1849 codons fits the human protein; also called FLAG-MTMR13; source: HEK293T, transfected, in lysate; not shown: FLAG, N-terminal, kept

— paper PMC7275063, “Rab35-regulated lipid turnover by myotubularins represses mTORC1 activity and controls myelin growth” (Nature Communications, 2020)
